Measurements reported in patent US20250340635A1 (HEFEI TG IMMUNOPHARMA, published 2025).
Blank lines part the entries; values can stand above or below the binder they belong to.

Assays:
[1] = molecular target: T1, cynomolgus monkey-His fusion protein (cynomolgus monkey, UniProt Q95JB9 22-257); assay: not described at this place ("Validation has shown"); Jeru4602 was tested by ELISA on coated cynomolgus NKp46-His in Example 7
T1 construct: extracellular domain; also called cynomolgus monkey NKp46; monkey NKp46; not shown: His tag
Procedure: The binding characteristics of the humanized 10D10 antibody prepared in Example 6 was detected using the ELISA assay. The NKp46 extracellular region His tag fusion protein (NKp46-His) was coated into a 96-well plate. The signal intensity after antibody addition was used to determine the binding characteristics of the antibody to NKp46. The specific steps were as follows:
The human NKp46-His fusion protein and cynomolgus monkey-His fusion protein (for specific sources, see Example 2) were diluted to 1 μg/mL with PBS buffer, added to a 96-well plate at 100 μL/well and left overnight at 4° C. The PBS buffer solution was removed from the 96-well plate. The plate was washed 6 times with PBST (pH 7.2, PBS containing 0.1% Tween 20) buffer solution. PBS/10% BSA was added at 200 μL/well and incubated at 37° C. for 2 hours for blocking. The blocking solution was removed. The plate was washed 6 times with PBST. […] The absorbance at […] was read with a microplate reader.

[2] = molecular target: T2, human NKp46-His fusion protein (human, UniProt O76036 22-258); assay: ELISA, NKp46-His coated, anti-human HRP
T2 construct: Bought from Acro; also called NKp46 extracellular region His tag fusion protein; not shown: His tag

[3] = molecular target: T3, human MICA-His fusion protein (human, UniProt Q29983 24-307); assay: ELISA, MICA-His coated, anti-human HRP
T3 construct: extracellular domain; also called MICA extracellular region His tag fusion protein; not shown: His tag
T3 sequence (looked up): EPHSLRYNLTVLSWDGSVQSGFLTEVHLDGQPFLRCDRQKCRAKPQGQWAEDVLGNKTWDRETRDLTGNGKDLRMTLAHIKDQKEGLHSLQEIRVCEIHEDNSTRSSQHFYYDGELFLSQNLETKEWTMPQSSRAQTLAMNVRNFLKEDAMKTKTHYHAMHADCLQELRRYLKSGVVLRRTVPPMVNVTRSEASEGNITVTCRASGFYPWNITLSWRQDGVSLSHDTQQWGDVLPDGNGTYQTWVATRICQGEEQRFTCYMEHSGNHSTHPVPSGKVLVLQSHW

T2 sequence (O76036 22-258 Q82K): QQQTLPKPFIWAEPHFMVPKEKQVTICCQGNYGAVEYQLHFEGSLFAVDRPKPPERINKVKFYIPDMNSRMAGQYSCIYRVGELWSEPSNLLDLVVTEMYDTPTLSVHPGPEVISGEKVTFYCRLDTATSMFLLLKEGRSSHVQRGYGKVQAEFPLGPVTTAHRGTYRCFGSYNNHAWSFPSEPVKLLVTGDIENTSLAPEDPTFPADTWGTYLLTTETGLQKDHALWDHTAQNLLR
T1 sequence (Q95JB9 22-257): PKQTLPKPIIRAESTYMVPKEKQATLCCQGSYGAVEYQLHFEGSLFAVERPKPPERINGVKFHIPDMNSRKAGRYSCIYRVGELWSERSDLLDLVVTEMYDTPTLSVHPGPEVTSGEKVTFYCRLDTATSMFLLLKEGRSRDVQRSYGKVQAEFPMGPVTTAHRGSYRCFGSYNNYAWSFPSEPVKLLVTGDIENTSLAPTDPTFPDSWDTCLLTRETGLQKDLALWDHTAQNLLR

binding result [1]: no binding
B1: Jeru4602 (antibody, human IgG1, kappa, L234A L235A, V domains shown)
VH: QVTLKESGPGILQPSQTLSLTCSFSGFSLSTYGIGVGWNRQPSGKGLEWLAHIWWNDNEYYNIDLKSRLTISKDTSNNQVFLKIASVDTADTATYYCVRGNYRYARGYVMDYWGQGTSVTVSS
VL: DIVLTQSPASLAVSLGQRATISCRASESVEYYGTSLMQWYQQKPGQPPKLLIYAASNVESGVPARFSGSGSGTDFSLNIHPVEEDDFAMYFCQQNRKVPWTFGGGTKLEIKR
notes: also called control antibody 2; NKp46 antibody disclosed in U.S. Ser. No. 10/716,864

binding result [2]: binds | binding result [3]: binds
B2: murine 10D10×MICA bispecific antibody (bispecific antibody, human IgG1, kappa, L234A L235A)
chain: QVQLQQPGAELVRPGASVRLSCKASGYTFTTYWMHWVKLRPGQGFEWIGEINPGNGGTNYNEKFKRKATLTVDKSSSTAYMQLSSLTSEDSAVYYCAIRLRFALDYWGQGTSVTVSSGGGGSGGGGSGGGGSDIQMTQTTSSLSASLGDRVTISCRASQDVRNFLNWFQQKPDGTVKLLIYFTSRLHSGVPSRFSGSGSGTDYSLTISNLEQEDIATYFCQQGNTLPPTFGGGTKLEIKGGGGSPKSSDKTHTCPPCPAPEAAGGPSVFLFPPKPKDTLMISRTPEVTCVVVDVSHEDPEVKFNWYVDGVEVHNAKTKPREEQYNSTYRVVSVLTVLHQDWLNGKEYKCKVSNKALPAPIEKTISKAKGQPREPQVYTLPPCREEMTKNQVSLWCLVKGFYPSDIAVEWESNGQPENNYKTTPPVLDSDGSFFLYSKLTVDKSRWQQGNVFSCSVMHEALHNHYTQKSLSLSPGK
heavy: QVQLQESGPGLVKPSETLSLTCTVSGFSLTTYGVHWIRQPPGKGLEWIGMIWTDATTDYNAAFISRVTISVDTSKNQFSLKLSSVTAADTAVYYCARKGHGYYYAMDYWGQGTLVTVSSASTKGPSVFPLAPSSKSTSGGTAALGCLVKDYFPEPVTVSWNSGALTSGVHTFPAVLQSSGLYSLSSVVTVPSSSLGTQTYICNVNHKPSNTKVDKKVEPKSCDKTHTCPPCPAPEAAGGPSVFLFPPKPKDTLMISRTPEVTCVVVDVSHEDPEVKFNWYVDGVEVHNAKTKPREEQYNSTYRVVSVLTVLHQDWLNGKEYKCKVSNKALPAPIEKTISKAKGQPREPQVCTLPPSREEMTKNQVSLSCAVKGFYPSDIAVEWESNGQPENNYKTTPPVLDSDGSFFLVSKLTVDKSRWQQGNVFSCSVMHEALHNHYTQKSLSLSPGK
light: EIVLTQSPGTLSLSPGERATLSCTASSSVSSSYLHWYQQKPGQAPRLLIYSTSNLASGIPDRFSGSGSGTDFTLTISRLEPEDFAVYYCHQYHRSPFTFGQGTKLEIKRTVAAPSVFIFPPSDEQLKSGTASVVCLLNNFYPREAKVQWKVDNALQSGNSQESVTEQDSKDSTYSLSSTLTLSKADYEKHKVYACEVTHQGLSSPVTKSFNRGEC
notes: First chain is the murine 10D10 ScFv-Fc (knob); the heavy and light chains are those of the MICA antibody (hole); knob-into-hole heterodimer; also called NKp46 (murine 10D10)×MICA bispecific antibody

binding result [2]: binds | binding result [3]: binds
B3: humanized 10D10×MICA bispecific antibody (bispecific antibody, human IgG1, kappa, L234A L235A)
chain: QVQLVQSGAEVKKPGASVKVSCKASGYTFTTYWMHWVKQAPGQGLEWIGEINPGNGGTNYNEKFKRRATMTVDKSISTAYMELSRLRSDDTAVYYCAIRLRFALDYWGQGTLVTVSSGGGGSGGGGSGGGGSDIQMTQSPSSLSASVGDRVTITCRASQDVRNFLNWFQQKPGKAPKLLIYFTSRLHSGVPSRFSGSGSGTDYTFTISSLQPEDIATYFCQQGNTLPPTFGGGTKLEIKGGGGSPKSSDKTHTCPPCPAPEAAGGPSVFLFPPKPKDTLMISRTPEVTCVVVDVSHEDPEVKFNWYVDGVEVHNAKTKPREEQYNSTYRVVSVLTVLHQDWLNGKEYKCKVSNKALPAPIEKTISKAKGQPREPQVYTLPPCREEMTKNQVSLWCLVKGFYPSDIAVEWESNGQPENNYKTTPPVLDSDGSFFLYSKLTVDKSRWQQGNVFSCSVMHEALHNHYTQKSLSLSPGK
heavy: B2 heavy
light: B2 light
notes: First chain is the humanized h10D10 ScFv-Fc (knob); the heavy and light chains are those of the MICA antibody (hole); also called h10D10×MICA; NKp46 (humanized 10D10)×MICA bispecific antibody
